The target of the experiment is recombinant memapsin 2 (M2pd), auto-activated from pro-M2pd at pH 4.0 (human) (UniProt P56817). The experiment in a line: cell-based or functional assay.
Chain of recombinant memapsin 2 (M2pd), auto-activated from pro-M2pd at pH 4.0 (human) (P56817 25-419 limits assumed): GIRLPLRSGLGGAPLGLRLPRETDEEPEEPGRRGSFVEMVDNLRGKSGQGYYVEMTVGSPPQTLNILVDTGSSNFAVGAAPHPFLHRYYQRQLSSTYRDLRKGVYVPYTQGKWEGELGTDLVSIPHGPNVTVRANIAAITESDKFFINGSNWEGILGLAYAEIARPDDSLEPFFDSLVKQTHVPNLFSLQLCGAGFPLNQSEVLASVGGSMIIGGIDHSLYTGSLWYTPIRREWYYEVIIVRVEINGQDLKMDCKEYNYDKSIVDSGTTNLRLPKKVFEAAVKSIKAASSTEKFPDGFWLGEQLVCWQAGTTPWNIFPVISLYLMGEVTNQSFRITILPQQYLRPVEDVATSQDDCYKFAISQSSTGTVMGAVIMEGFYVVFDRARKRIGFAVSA

As for Pepstatin A (peptide), the inhibition of M2pd activity (IC50) is 300 µM.

Values taken from patent US20020049303A1.
